± gives the standard deviation of the averaged measurements.
System: Saccharomyces cerevisiae
Assay: protein stability index of tFT-peptide fusion (C-terminal peptide) (PSI (0-1 scale)); higher = more stable (slower turnover)
Details: temperature: 30 C
Procedure: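 MPS profiling in S. cerevisiae of the yeast C-terminome library: the last 12 aa of each annotated ORF are fused to the C-terminus of a sfGFP-mCherry timer, after a GGGS linker. Cells are FACS-sorted into 8 mCherry/sfGFP bins and deep-sequenced. PSI runs from 0 (unstable) to 1 (stable); wild type and das1Δ backgrounds, two technical replicates each.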

[1] = genetic background: das1 deletion

Sequence | protein stability index [1] | protein stability index (genetic background: wild type)
SVLVCFLLRRAS [YJR087W C-terminal 12 aa] | 0.506 ± 0.02 | 0.342 ± 0.0095
TIPAAKRTKPSA [LYS20 C-terminal 12 aa] | 0.69801 ± 0.00025 | 0.703 ± 0.014
RLGNLENIKIPK [AIM4 C-terminal 12 aa] | 0.737 ± 0.0074 | 0.696 ± 0.038
FADKIKPTKVAE [MCK1 C-terminal 12 aa] | 0.693 ± 0.015 | 0.691 ± 0.023
ECPSVPPTVRAY [SDH1 C-terminal 12 aa] | 0.528 ± 0.011 | 0.55 ± 0.0063
GAPANKRPRRGL [SMD1 C-terminal 12 aa] | 0.737 ± 0.026 | 0.7365 ± 0.0044
DSDADIEELLEE [PGA2 C-terminal 12 aa] | 0.696 ± 0.015 | 0.689 ± 0.046
GINLNISYSSGK [ULI1 C-terminal 12 aa] | 0.706 ± 0.012 | 0.681 ± 0.0044
SIHIDDFENENN [YGL036W C-terminal 12 aa] | 0.7059 ± 0.0061 | 0.675 ± 0.023
LKRISDIQADSS [PET494 C-terminal 12 aa] | 0.692 ± 0.031 | 0.6987 ± 0.0012
IRKYGYNLAAYT [YLR462W C-terminal 12 aa] | 0.6649 ± 0.00076 | 0.6563 ± 0.0049
CSTERPKRARCD [YOR342C C-terminal 12 aa] | 0.708 ± 0.0099 | 0.695 ± 0.029
SGYDYFDVSVSG [YAT1 C-terminal 12 aa] | 0.71 ± 0.022 | 0.712 ± 0.015
LTVTRWKLQITG [YPR160W-A C-terminal 12 aa] | 0.659 ± 0.013 | 0.4486 ± 0.0032
DIYEIRGTALDD [DSL1 C-terminal 12 aa] | 0.6986 ± 0.0054 | 0.699 ± 0.052
GPEPPRYDEISS [CSR2 C-terminal 12 aa] | 0.705 ± 0.058 | 0.635 ± 0.025
WKLYQDYLSGKV [YER134C C-terminal 12 aa] | 0.695 ± 0.014 | 0.719 ± 0.08
ENKLWNTEYFFC [ECM34 C-terminal 12 aa] | 0.738 ± 0.018 | 0.6655 ± 0.0018
SCAKDILGEENF [BRE4 C-terminal 12 aa] | 0.687 ± 0.0079 | 0.661 ± 0.04
TGLAGEGDTLVT [TAG1 C-terminal 12 aa] | 0.694 ± 0.007 | 0.685 ± 0.021
DNQPWQLARCGR [HRT1 C-terminal 12 aa] | 0.698 ± 0.015 | 0.718 ± 0.014

Sequence | protein stability index [1] | protein stability index (genetic background: wild type)
VEVLENLQSVLK [ATP16 C-terminal 12 aa] | 0.68 ± 0.013 | 0.7134 ± 0.0029
VPLGPKPDISRL [GTO1 C-terminal 12 aa] | 0.7047 ± 0.0045 | 0.712 ± 0.041
KQSKKKTSFTRF [YBL028C C-terminal 12 aa] | 0.699 ± 0.036 | 0.66155 ± 0.00019
LIWELGDGQSGQ [INO4 C-terminal 12 aa] | 0.7444 ± 0.0017 | 0.7182 ± 0.0015
KKFIYQQLDMFS [YOL024W C-terminal 12 aa] | 0.7181 ± 0.0053 | 0.7 ± 0.024
CLRTVLKSDEIK [SFA1 C-terminal 12 aa] | 0.647 ± 0.025 | 0.663 ± 0.021
MNEIDARIFEYK [SPO11 C-terminal 12 aa] | 0.764 ± 0.024 | 0.681 ± 0.013
SQQNNNGNQNRY [RNQ1 C-terminal 12 aa] | 0.7168 ± 0.002 | 0.6682 ± 0.0039
KSVVVRSKEKQS [GAA1 C-terminal 12 aa] | 0.7002 ± 0.0014 | 0.441 ± 0.014
LLRPPKPPLFCC [YGL123C-A C-terminal 12 aa] | 0.6368 ± 0.0044 | 0.418 ± 0.032
MTMILSRMSCSA [IRA2 C-terminal 12 aa] | 0.622 ± 0.014 | 0.609 ± 0.015
NPWKSQIRDWKN [YBL100W-C C-terminal 12 aa] | 0.704 ± 0.018 | 0.77 ± 0.031
EDHKVDGNKKED [VMA21 C-terminal 12 aa] | 0.68 ± 0.017 | 0.707 ± 0.011
SINGVNLELIKD [MIX14 C-terminal 12 aa] | 0.691 ± 0.041 | 0.635 ± 0.016
VEKVKKFVEENN [YML108W C-terminal 12 aa] | 0.678 ± 0.007 | 0.651 ± 0.069
YKTKYIWERLGK [SPC24 C-terminal 12 aa] | 0.69 ± 0.012 | 0.694 ± 0.029
DDKPKIPTMLNA [YME1 C-terminal 12 aa] | 0.7003 ± 0.0065 | 0.671 ± 0.046
RLVRNVELSKEK [MTD1 C-terminal 12 aa] | 0.708 ± 0.028 | 0.718 ± 0.062
ILLITGFKSSFT [SRL4 C-terminal 12 aa] | 0.72 ± 0.018 | 0.737 ± 0.038
LSFADYRKKLLK [SET3 C-terminal 12 aa] | 0.70897 ± 0.00015 | 0.689 ± 0.016
